From IntAct's records for PubMed 25910212

Assays:
[1] = target: TNNT1, P13805-3
[2] = target: CAGE1, Q8TC20-4
[3] = target: syce1_human SYCE1 (UniProt Q8N0S2)
[4] = target: syce1_human SYCE1 (UniProt Q8N0S2); remark: listed apart in the source
[5] = target: kxdl1_human KXD1 (UniProt Q9BQD3)
[6] = target: goga2_human GOLGA2 (UniProt Q08379)
[7] = target: tfpt_human TFPT (UniProt P0C1Z6)
[8] = target: md1l1_human MAD1L1 (UniProt Q9Y6D9)
[9] = target: ifit3_human IFIT3 (UniProt O14879)
[10] = target: ifit3_human IFIT3 (UniProt O14879); remark: listed apart in the source
[11] = target: CAGE1, Q8TC20-4; remark: listed apart in the source
[12] = target: tpp2_human TPP2 (UniProt P29144)
[13] = target: MTUS2, Q5JR59-3
[14] = target: cap2_human CAP2 (UniProt P40123)
[15] = target: cap2_human CAP2 (UniProt P40123); remark: listed apart in the source
[16] = target: cof2_human CFL2 (UniProt Q9Y281)
[17] = target: KRT40 (UniProt Q6A162)

Chain of ifit3_human IFIT3 (O14879 whole entry): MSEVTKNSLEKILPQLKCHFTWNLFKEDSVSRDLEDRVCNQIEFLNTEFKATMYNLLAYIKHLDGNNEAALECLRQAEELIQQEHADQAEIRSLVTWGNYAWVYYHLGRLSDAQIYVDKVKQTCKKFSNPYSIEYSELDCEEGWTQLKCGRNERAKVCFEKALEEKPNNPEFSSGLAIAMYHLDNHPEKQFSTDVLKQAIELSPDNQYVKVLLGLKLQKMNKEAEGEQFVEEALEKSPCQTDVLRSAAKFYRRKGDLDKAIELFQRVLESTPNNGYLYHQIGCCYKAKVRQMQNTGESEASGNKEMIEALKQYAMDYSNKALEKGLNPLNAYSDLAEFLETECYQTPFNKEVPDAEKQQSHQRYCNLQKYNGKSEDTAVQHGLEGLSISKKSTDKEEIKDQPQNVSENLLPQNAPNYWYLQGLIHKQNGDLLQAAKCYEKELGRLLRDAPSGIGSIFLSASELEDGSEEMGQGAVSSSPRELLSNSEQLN
Chain of syce1_human SYCE1 (Q8N0S2 whole entry): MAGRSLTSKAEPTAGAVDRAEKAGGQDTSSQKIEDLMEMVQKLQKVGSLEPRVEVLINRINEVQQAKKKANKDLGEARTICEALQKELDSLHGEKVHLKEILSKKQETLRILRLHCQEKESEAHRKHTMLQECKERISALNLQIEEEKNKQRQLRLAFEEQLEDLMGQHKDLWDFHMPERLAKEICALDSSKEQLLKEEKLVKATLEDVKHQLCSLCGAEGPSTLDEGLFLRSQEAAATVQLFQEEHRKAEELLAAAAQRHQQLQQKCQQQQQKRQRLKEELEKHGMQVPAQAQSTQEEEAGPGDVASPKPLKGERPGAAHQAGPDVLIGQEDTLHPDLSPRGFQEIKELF
Chain of CAGE1, Q8TC20-4 (Q8TC20 other isoform, or with tags, fused parts or gaps): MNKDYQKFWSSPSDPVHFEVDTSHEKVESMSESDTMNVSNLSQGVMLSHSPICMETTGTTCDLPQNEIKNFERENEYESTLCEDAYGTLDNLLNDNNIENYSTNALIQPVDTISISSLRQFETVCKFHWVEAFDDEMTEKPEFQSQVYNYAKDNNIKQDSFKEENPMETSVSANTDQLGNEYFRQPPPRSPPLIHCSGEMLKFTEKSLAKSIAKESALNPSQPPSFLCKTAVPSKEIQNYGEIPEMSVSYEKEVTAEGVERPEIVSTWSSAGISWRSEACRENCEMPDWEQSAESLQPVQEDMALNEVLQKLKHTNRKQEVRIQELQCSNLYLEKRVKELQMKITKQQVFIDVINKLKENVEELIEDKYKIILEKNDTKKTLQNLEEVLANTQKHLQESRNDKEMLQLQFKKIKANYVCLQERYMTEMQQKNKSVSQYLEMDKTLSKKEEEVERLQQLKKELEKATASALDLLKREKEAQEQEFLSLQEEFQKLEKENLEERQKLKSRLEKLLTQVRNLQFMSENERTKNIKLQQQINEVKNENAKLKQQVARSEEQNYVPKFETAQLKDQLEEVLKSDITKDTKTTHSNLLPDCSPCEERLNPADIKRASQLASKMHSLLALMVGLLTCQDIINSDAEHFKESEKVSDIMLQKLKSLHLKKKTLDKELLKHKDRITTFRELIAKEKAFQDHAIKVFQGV
Chain of Tropomyosin alpha-1 chain (Homo sapiens), P09493-10 D175N (P09493 other isoform, or with tags, fused parts or gaps D175N): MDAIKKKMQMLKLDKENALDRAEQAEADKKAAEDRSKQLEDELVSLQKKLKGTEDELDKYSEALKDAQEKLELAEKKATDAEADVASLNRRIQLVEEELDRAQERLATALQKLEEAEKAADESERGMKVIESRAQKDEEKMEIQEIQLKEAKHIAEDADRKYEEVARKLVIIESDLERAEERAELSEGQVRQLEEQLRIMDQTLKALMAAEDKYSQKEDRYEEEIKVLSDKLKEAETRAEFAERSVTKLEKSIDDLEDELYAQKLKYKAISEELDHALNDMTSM
Chain of Tropomyosin alpha-1 chain (Homo sapiens), P09493-10 V95A (P09493 other isoform, or with tags, fused parts or gaps V95A): as the sequence (P09493 other isoform, or with tags, fused parts or gaps D175N) above
Chain of tfpt_human TFPT (P0C1Z6 whole entry): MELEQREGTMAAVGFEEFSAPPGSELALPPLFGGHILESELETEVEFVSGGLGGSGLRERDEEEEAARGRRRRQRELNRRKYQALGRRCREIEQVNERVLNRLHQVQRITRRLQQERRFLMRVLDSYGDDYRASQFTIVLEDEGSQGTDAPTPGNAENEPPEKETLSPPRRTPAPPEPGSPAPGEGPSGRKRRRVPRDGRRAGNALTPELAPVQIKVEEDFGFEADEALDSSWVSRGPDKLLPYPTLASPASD
Chain of kxdl1_human KXD1 (Q9BQD3 whole entry): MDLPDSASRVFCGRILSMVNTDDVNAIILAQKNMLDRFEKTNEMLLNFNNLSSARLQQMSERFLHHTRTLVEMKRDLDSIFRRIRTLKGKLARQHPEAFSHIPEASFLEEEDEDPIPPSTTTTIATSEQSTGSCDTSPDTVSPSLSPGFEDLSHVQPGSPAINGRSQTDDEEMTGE
Chain of md1l1_human MAD1L1 (Q9Y6D9 whole entry): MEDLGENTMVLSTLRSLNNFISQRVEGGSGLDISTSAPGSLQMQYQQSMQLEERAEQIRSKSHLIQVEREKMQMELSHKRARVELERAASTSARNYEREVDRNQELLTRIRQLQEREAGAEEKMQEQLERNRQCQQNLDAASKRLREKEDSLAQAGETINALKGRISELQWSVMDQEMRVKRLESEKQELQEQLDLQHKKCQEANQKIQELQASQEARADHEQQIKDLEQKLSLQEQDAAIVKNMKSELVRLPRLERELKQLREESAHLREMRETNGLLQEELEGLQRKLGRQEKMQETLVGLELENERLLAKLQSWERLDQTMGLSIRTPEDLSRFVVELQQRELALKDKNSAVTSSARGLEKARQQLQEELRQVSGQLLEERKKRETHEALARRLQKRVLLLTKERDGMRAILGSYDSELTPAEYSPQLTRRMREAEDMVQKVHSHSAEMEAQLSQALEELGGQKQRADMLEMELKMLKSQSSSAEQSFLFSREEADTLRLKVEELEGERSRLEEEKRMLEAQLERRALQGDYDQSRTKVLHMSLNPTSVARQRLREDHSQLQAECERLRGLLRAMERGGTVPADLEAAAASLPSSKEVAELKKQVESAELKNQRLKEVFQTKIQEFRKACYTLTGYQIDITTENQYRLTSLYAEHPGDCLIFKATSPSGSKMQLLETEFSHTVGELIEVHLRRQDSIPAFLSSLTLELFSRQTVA
Chain of TNNT1, P13805-3 (P13805 other isoform, or with tags, fused parts or gaps): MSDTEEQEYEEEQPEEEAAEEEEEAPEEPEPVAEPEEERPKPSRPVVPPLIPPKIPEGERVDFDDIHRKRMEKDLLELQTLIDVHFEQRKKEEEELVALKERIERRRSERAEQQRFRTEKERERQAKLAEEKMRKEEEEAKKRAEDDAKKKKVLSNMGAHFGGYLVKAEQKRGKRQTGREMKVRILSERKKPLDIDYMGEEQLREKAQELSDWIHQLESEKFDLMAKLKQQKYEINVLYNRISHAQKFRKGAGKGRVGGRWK
Chain of goga2_human GOLGA2 (Q08379 whole entry): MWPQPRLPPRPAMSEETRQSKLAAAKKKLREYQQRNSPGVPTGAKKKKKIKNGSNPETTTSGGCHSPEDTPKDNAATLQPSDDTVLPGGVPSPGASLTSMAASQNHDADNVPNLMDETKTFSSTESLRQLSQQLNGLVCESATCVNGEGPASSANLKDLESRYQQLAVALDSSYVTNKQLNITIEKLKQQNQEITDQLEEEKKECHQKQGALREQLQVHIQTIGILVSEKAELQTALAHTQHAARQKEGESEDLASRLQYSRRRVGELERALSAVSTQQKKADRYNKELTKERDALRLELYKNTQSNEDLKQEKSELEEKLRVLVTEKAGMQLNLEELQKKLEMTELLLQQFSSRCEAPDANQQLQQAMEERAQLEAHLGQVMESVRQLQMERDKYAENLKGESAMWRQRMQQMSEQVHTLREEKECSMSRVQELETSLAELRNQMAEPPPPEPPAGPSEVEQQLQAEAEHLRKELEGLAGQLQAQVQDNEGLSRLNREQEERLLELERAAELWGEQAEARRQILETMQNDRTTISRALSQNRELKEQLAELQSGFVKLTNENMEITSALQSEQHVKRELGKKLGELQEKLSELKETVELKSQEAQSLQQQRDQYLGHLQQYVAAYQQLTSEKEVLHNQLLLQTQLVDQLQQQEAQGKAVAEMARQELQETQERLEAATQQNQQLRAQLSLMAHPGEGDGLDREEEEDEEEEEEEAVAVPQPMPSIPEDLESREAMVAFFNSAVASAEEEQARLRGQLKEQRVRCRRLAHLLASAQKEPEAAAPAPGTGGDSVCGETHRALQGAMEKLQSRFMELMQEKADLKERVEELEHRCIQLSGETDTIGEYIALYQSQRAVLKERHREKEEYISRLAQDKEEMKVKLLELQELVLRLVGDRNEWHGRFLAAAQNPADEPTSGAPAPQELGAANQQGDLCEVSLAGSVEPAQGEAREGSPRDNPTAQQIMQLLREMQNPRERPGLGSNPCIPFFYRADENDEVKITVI
Chain of Cytochrome c (Homo sapiens), P99999 G42S (P99999 whole entry G42S): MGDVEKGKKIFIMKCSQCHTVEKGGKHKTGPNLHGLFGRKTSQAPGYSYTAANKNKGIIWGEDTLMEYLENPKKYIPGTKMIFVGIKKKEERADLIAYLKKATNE
Chain of MTUS2, Q5JR59-3 (Q5JR59 other isoform, or with tags, fused parts or gaps): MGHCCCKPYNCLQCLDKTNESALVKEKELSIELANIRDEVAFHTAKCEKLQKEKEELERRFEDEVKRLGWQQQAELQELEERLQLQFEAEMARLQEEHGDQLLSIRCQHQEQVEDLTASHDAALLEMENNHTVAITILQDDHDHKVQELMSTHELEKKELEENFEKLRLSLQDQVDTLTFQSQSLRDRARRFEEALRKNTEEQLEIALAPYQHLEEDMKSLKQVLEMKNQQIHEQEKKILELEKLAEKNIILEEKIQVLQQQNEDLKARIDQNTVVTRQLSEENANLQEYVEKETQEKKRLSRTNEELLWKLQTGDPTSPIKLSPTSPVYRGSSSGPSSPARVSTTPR

effect of a mutation on the interaction [1]	effect of a mutation on the interaction [3]	effect of a mutation on the interaction [5]	effect of a mutation on the interaction [6]	effect of a mutation on the interaction [7]	effect of a mutation on the interaction [8]	effect of a mutation on the interaction [9]	Substance	effect of a mutation on the interaction [2]	also measured
with no effect	disrupting interaction strength	with no effect	disrupting interaction strength	with no effect	with no effect	with no effect	Tropomyosin alpha-1 chain (Homo sapiens), P09493-10 V95A	with no effect	effect of a mutation on the interaction [4]: with no effect
with no effect	with no effect	with no effect	with no effect	with no effect	with no effect	with no effect	Tropomyosin alpha-1 chain (Homo sapiens), P09493-10 D175N	with no effect	effect of a mutation on the interaction [10]: causing an interaction; effect of a mutation on the interaction [11]: causing an interaction
–	–	–	–	–	–	–	DNA polymerase beta (Homo sapiens) (from UniProt P06746) R137Q	–	effect of a mutation on the interaction [12]: with no effect
–	–	–	–	–	–	–	Zinc finger protein 624 (Homo sapiens), Q9P2J8 K135N	–	effect of a mutation on the interaction [13]: with no effect
–	–	–	–	–	–	–	Actin, cytoplasmic 1 (Homo sapiens) (from UniProt P60709) R183W	–	effect of a mutation on the interaction [14]: with no effect; effect of a mutation on the interaction [15]: causing an interaction; effect of a mutation on the interaction [16]: with no effect
–	–	–	–	–	–	–	Cytochrome c (Homo sapiens), P99999 G42S	–	effect of a mutation on the interaction [17]: with no effect
